Legend:
[1] = biological target: TSP4-N253 (AD-XD1-XD2 of TSP4, lacking XD3) (bacteriophage CBA120) (UniProt G3M192); assay: AUC; sedimentation velocity of single proteins and of mixtures, PBS pH 7.4, 20 °C, absorbance at 280 nm, 30-50 krpm; c(s) by SEDFIT; Kd and koff by Lamm equation modelling with a two-site heterogeneous association model A + B + B = AB + B = ABB (A: TSP4-N335 hexamer, B: partner TSP trimer; two symmetric sites, no cooperativity)
[2] = biological target: TSP4-N490 (AD-XD1-XD2-XD3 region followed by the D1-D2 head region of TSP4) (bacteriophage CBA120) (UniProt G3M192); assay: as above
[3] = biological target: TSP4-N181 (AD-XD1 of TSP4) (bacteriophage CBA120) (UniProt G3M192); assay: as above
[4] = biological target: TSP4 devoid of the AD-XD1 domains, residues 185-1036 (bacteriophage CBA120) (UniProt G3M192); assay: as above
[5] = biological target: TSP4-N335, the 335 N-terminal residues of tailspike protein 4 of bacteriophage CBA120 (AD-XD1-XD2-XD3) (bacteriophage CBA120) (UniProt G3M192); assay: as above
[6] = biological target: TSP4-N335, the 335 N-terminal residues of tailspike protein 4 of bacteriophage CBA120 (AD-XD1-XD2-XD3) (bacteriophage CBA120) (UniProt G3M192); assay: AUC; sedimentation equilibrium, PBS, 20 °C, 3 or 4 speeds (3000-12,000 rpm); global fit with SEDPHAT; for mixtures the two-site model A + B + B = AB + B = ABB
[7] = biological target: TSP4-N335, the 335 N-terminal residues of tailspike protein 4 of bacteriophage CBA120 (AD-XD1-XD2-XD3) (bacteriophage CBA120) (UniProt G3M192); assay: AUC; sedimentation velocity of single proteins and of mixtures, PBS pH 7.4, 20 °C, absorbance at 280 nm, 30-50 krpm; c(s) by SEDFIT; Kd and koff by Lamm equation modelling with a two-site heterogeneous association model A + B + B = AB + B = ABB (A: TSP4-N335 hexamer, B: partner TSP trimer; two symmetric sites, no cooperativity); remark: listed apart in the source
[8] = biological target: the molecule itself; assay: as above
[9] = biological target: TSP4-N181 (AD-XD1 of TSP4) (bacteriophage CBA120) (UniProt G3M192); assay: as above; remark: listed apart in the source
[10] = biological target: TSP4-N490 (AD-XD1-XD2-XD3 region followed by the D1-D2 head region of TSP4) (bacteriophage CBA120) (UniProt G3M192); assay: as above; remark: listed apart in the source
[11] = biological target: TSP4-N335, the 335 N-terminal residues of tailspike protein 4 of bacteriophage CBA120 (AD-XD1-XD2-XD3) (bacteriophage CBA120) (UniProt G3M192); assay: AUC; sedimentation velocity in 50 mM TRIS pH 8.0 or HEPES pH 7.3, 150 mM NaCl, 0.1-0.5 mM Zn2+ (100 μM ZnCl2 in the legend)
[12] = biological target: the molecule itself; assay: as above

Molecule: TSP4-N253 (AD-XD1-XD2 of TSP4, lacking XD3) (from UniProt G3M192 1-253) (domain or fragment)
- stoichiometry N [1]: 6

Molecule: TSP4-N490 (AD-XD1-XD2-XD3 region followed by the D1-D2 head region of TSP4) (from UniProt G3M192 1-490) (domain or fragment)
- stoichiometry N [2]: 6

Molecule: TSP4-N181 (AD-XD1 of TSP4) (from UniProt G3M192 1-181) (domain or fragment)
- stoichiometry N [3]: 6

Molecule: TSP4 devoid of the AD-XD1 domains, residues 185-1036 (from UniProt G3M192 185-1036) (domain or fragment)
- stoichiometry N [4]: 3

Molecule: TSP4-N335, the 335 N-terminal residues of tailspike protein 4 of bacteriophage CBA120 (AD-XD1-XD2-XD3) (from UniProt G3M192 1-335) (domain or fragment)
- stoichiometry N ([5]; mixed monomer and hexamer sample): 3
- stoichiometry N ([5]; purified single-species sample): 6

B1: Tailspike protein 1 of bacteriophage CBA120 (natural protein)
chain: MNEMFSQGGKGSTGILTNKQAVARHFGVKQSEVVYFSVGVDLGGYKVIYDKETQRAYSLPVGIASGTTAVSLSTAAVLVHSAGSVDLGSLAVSREEYVTLPGSFDSGSTLNVKNELLTYTDGKYRWDGILPKTVAPGSTPASTGGVGLGAWISVGDASLRTQLANGDGSLIGIHPQGTLNNVLTVRTPEQYNAVGDGIADDTSKLKEMLSDINNVPETLPDAAAVNSYMEQVAVKIDLTKLYRFTETLYIPPGVSIEIPTSNFFTRECKQGLFYDPVDKNTAAISLMVYRKQPDGSYKLNKDVDYYPTGLDIDNGDAITCARKIDINNLNLITAPGVKVGVKWIGGAGCTTKGLSIGENTGSDITTARLPRVGLLQSASWGSIHENLRILYKTQGAVFIDSNGGAAVNNAYISRLGNTNGELEQAVYKPAGFTEVGDVAVTQFAGSEVKFNSPIIEQASFDFVHAGRDTDSYGLFMVDKPHIESSGGKKKHSFYLINTSSNVTLSGVGLSGQDPDLDSMYFLKNCPETARNVVRGQMPISGVKLVRGTGNYPTLVLDCTNMGSQFQFGEVGDIFYIKDVVGVKADTLYIDPVNGNNYNWGTNGTKPIRELTNIAKICQLFRCKSVYLNAGESVITSNTELPMVVFEGPGSLKANSGSSFLIKAGGTLSLIGLSGISTDGGHMFRVSTVEKVNIHTNCSVNAGAAYVVLSEVQGNIEYRQLFYSVNCSKYIGATAGQTIAGIMVKTATRPTGIDAAPVDGNVSLTYKIIES
notes: Homotrimer by SV (MWcalc of the trimer 248 kDa); also called TSP1
- Kd [6]: 80 nM
- Kd [7]: 60 nM
- koff [7]: 0.0001 s⁻¹
- stoichiometry N (TSP1:TSP4-N335 (chains)) ([7]; one trimer bound per hexamer): 0.5
- stoichiometry N (TSP1:TSP4-N335 (chains)) ([7]; two trimers bound per hexamer): 1
- stoichiometry N [8]: 3

B2: Tailspike protein 2 of bacteriophage CBA120 (natural protein, UniProt G3M190 1-921, looked up)
chain: MTRNVEELFGGVITAPHQIPFTYKSNVGGETFLSLPFYPVTGVVTINGGMQVPLDNFEIEGNTLNLGRALSKGDVVYCLFDKILSPEDTAKGIRIYKFQAVGGETEFTPDFTSYGVQSLYIGGEYKTPEIEYSYDSTTGKVSLQTALSAGVWVVAEMSVKQPNISPAFDRSIQEIARSANVKDSEVIVSTDTISLLDGKKVVYDIATQTSYGLPTIPDGSVISSVSAGKLNYNPGDVQVDLLPLEDSFINVINTLGRNDGAKYIGECHSVADLRNTEPTMDGQRIILKQHTAGTLLGGGVFRALIDGTGKTDNNGTVIKTVGGAAWLRVNADRVNPFMFGALGGSNDDTIPVQSCVDSGKATQLTDAHYVSNIQLKYNTSSIYGSGLHYSRLHQLPSATGNCITIKDTCSLIVLDAFGVYGTGAQQGTSFTAGTTGIYVETPSGLSADYPFHTTADPRRDLCISKVHIAGFDEYGLNIDSGNFSVTTDSLLVNHINQVGVRCATTDWTWTNIQVNTCGKQCLVLDGCGNGRIIGGKFIWANWQPYGTVGQFPGITINNSQNMVINGIEVQDCGGNGIEISESYSISMNGLNTNRNGINANNTFYNIVFNKSDAVINGFVGLNYAANSGSGANSSAGNFQFLSNDCSVTINGVVETGYMGINFIGDNNIINPTNSDLSINGLVNYSKTGLQTMNETPTFDGVSTTPVYVSVPSSVGQVNGLRLSQANKDKLLYSRTAGPEGITMAAVIVPTISGAEVFNFMAIGSGFSDTSNSLHLQLVIDASGKQTIALLLGGDGTTQILSGDLPNDLKLQSGVPYHIAIGAKPGYFWWSILNIQTGKRIRRSFRGAYLAVPFNSIFGLTSSLTFFSDSNAGGDACSGVGAKVYVGMFSSENDYVASRYYNLINPVDPTKLISYRILDSSI
notes: Homotrimer by SV (MWcalc of the trimer 297 kDa); also called TSP2
- Kd [6]: 75 nM
- stoichiometry N (TSP2:TSP4-N181 (chains)) ([9]; one trimer bound per hexamer): 0.5
- stoichiometry N (TSP2:TSP4-N181 (chains)) ([9]; two trimers bound per hexamer): 1
- Kd [7]: 110 nM
- koff [7]: 0.00025 s⁻¹
- stoichiometry N (TSP2:TSP4-N490 (chains)) ([10]; one trimer bound per hexamer): 0.5
- stoichiometry N (TSP2:TSP4-N490 (chains)) ([10]; two trimers bound per hexamer): 1
- stoichiometry N [8]: 3

B3: TSP1 head, residues 14-166 (D1-D2 domains and the alpha-helical neck, without the 13 N-terminal amino acids) (domain or fragment, bacteriophage CBA120, UniProt G3M189 14-166, looked up)
chain: GILTNKQAVARHFGVKQSEVVYFSVGVDLGGYKVIYDKETQRAYSLPVGIASGTTAVSLSTAAVLVHSAGSVDLGSLAVSREEYVTLPGSFDSGSTLNVKNELLTYTDGKYRWDGILPKTVAPGSTPASTGGVGLGAWISVGDASLRTQLANG
notes: TSP1 of phage CBA120, D1-D2 head and neck, residues 14-166; Trimerisation was promoted by Zn2+; also called TSP1_(14-166); TSP1-N_(14-166)
- stoichiometry N (TSP1 (14-166):TSP4-N335 (chains)) ([11]; one trimer bound per hexamer): 0.5
- stoichiometry N (TSP1 (14-166):TSP4-N335 (chains)) ([11]; two trimers bound per hexamer): 1
- stoichiometry N [12]: 3
